For experiment [1], the target named is T1, Escherichia coli sliding clamp (bacterial processivity factor, dnaN gene product) (Escherichia coli), P0A988. Briefly: ITC, 25 C.
Experiment [2] deals with Acinetobacter baumannii sliding clamp (Acinetobacter baumannii). Briefly: ITC, 25 C.
In experiment [3] the target is T2, Pseudomonas aeruginosa sliding clamp (Pseudomonas aeruginosa), Q9I7C4.
T2 chain: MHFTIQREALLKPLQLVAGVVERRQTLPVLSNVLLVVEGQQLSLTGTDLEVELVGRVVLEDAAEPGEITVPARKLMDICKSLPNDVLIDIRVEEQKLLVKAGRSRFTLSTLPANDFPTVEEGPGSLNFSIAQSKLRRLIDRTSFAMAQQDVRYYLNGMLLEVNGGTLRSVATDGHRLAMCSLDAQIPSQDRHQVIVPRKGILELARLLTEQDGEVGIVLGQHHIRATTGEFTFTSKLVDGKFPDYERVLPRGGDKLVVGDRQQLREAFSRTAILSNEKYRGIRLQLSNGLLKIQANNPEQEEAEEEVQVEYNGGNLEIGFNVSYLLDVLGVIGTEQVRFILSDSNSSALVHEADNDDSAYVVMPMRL
Briefly: ITC, 25 C.

In experiment [4] the target is T1, Escherichia coli sliding clamp …. The experiment is described as follows: kinITC.
The target is the same in experiment [5]. The experiment is described as follows: ITC, 25 C. The source holds these as a separate data set.

Where two headings read alike, the source gives them in different places. Square brackets hold non-standard residues; d marks the D form. Cha = N[C@@H](CC1CCCCC1)C(=O)O

With Ac-Q[Cha]DLF-OH [Ac-Gln-Cha-Asp-Leu-Phe-OH (peptide 1)], the Kd in experiment [1] was 170 nM; in experiment [2], 655 nM; in experiment [3] it was 600 nM; in experiment [5], 194 nM. Further, the koff in experiment [4] was determined as 0.0074 s⁻¹. The same molecule yielded a kon in experiment [4] of 40000 M⁻¹ s⁻¹. For the same molecule, the ΔG in experiment [5] is -9.2 kcal/mol.

Values taken from patent US20230312646A1, “ANTIBACTERIAL PEPTIDES” (priority 2020, published 2023).
